Laboratory results reported in publication PMC7596348, “The Iron-Sulfur Flavoprotein DsrL as NAD(P)H:Acceptor Oxidoreductase in Oxidative and Reductive Dissimilatory Sulfur Metabolism” (Frontiers in Microbiology, 2020).

Experiments:
Assay in all cases: purified protein
purified protein [1] = substrate: NC(=O)C1=CN([C@@H]2O[C@H](COP(=O)(O)OP(=O)(O)OC[C@H]3O[C@@H](n4cnc5c(N)ncnc54)[C@H](O)[C@@H]3O)[C@@H](O)[C@H]2O)C=CC1; assay type: biochemical, Chlorobaculum tepidum; conditions: 300 μM MTT, 50 mM potassium phosphate pH 8.0, 40°C
purified protein [2] = substrate: NC(=O)c1ccc[n+]([C@@H]2O[C@H](COP(=O)(O)OP(=O)(O)OC[C@H]3O[C@@H](n4cnc5c(N)ncnc54)[C@H](O)[C@@H]3O)[C@@H](O)[C@H]2O)c1; assay type: biochemical, Chlorobaculum tepidum; conditions: reduced methylviologen as donor, pH 8.0, 40°C
purified protein [3] = substrate: NC(=O)C1=CN([C@@H]2O[C@H](COP(=O)(O)OP(=O)(O)OC[C@H]3O[C@@H](n4cnc5c(N)ncnc54)[C@H](O)[C@@H]3O)[C@@H](O)[C@H]2O)C=CC1; assay type: biochemical, Allochromatium vinosum; conditions: 300 μM MTT, 50 mM potassium phosphate pH 7.0, 30°C
purified protein [4] = substrate: NC(=O)c1ccc[n+]([C@@H]2O[C@H](COP(=O)(O)OP(=O)(O)OC[C@H]3O[C@@H](n4cnc5c(N)ncnc54)[C@H](OP(=O)(O)O)[C@@H]3O)[C@@H](O)[C@H]2O)c1; assay type: biochemical, Allochromatium vinosum; conditions: reduced methylviologen as donor, pH 7.0, 30°C
purified protein [5] = substrate: NC(=O)c1ccc[n+]([C@@H]2O[C@H](COP(=O)(O)OP(=O)(O)OC[C@H]3O[C@@H](n4cnc5c(N)ncnc54)[C@H](O)[C@@H]3O)[C@@H](O)[C@H]2O)c1; assay type: biochemical, Allochromatium vinosum; conditions: reduced methylviologen as donor, pH 7.0, 30°C
purified protein [6] = substrate: NC(=O)C1=CN([C@@H]2O[C@H](COP(=O)(O)OP(=O)(O)OC[C@H]3O[C@@H](n4cnc5c(N)ncnc54)[C@H](OP(=O)(O)O)[C@@H]3O)[C@@H](O)[C@H]2O)C=CC1; assay type: biochemical, Allochromatium vinosum; conditions: 300 μM MTT, 50 mM potassium phosphate pH 7.0, 30°C
purified protein [7] = substrate: NC(=O)c1ccc[n+]([C@@H]2O[C@H](COP(=O)(O)OP(=O)(O)OC[C@H]3O[C@@H](n4cnc5c(N)ncnc54)[C@H](OP(=O)(O)O)[C@@H]3O)[C@@H](O)[C@H]2O)c1; assay type: biochemical, Desulfurella amilsii; conditions: reduced methylviologen as donor, pH 6.5, 45°C
purified protein [8] = substrate: NC(=O)C1=CN([C@@H]2O[C@H](COP(=O)(O)OP(=O)(O)OC[C@H]3O[C@@H](n4cnc5c(N)ncnc54)[C@H](OP(=O)(O)O)[C@@H]3O)[C@@H](O)[C@H]2O)C=CC1; assay type: biochemical, Desulfurella amilsii; conditions: 300 μM MTT, 50 mM potassium phosphate pH 6.5, 45°C

B1: CtDsrL-1B (Chlorobaculum tepidum TLS) (protein)
chain: MNAESNPILDFATEYVYPAFSELTGTDKIVAFGDHSHKCPIYVPQTPPCTAECPAGEDIRAINRFLNGTDPSDDPLKSAWETATDTNPFPAVMGRICPHPCQSKCNRGVHDESVAINAVEQVLGNYGIEHNLKLKGPGADTGKRVAIIGGGPAGLSAAYQLRRKGHAVTIYDANEKLGGMVLYGIMGYRVDRKVLEAEIGRIIELGVETKMGVTIGKDITLEQLEAEYDAVFIAVGAQKGRALPVPGFEGTPGATNAIDFLKSYEVLGDDIPVGKHVVVIGDGNVAMDVARLALRLGSQATIISGVPREEMACFENEFDDAKNEGTTMHFLTGTVEVLGGASGVTGLRCTKMVKKEKGEEGWNSPIPFLRYKSNGESFEIEADMVVAAIGQATDLSGLGSAASGPWLKVDRNFRIPGREKLFGGGDALKVDLITTAVGHGRKAAYAIDAFLKGEPMPEEPYREITKPHKQDLLYFLHTPQAKRTSIKPEVVVGNHDELLEALTPEQAITESKRCMSCGFCFDCKQCVSFCPQEAITRFRDNPAGEKVYTDYTKCVGCHLCSLVCPCGYIQMGMGDGL
notes: full length (577 residues), C-terminal Strep-tag (… from primer), E. coli BL21(DE3) ΔiscR; primer-coded N-term MNAESNP, C-term GMGDGL
In the case of B1, the Km (purified protein [1]) is reported as 267.5 ± 20.5 µM, the Vmax (purified protein [1]) is reported as 436 µmol/min/mg and the kcat (purified protein [1]) is reported as 460 s⁻¹. It also gave a kcat/Km (purified protein [1]) of 1.72e+06 M⁻¹ s⁻¹, a Km (purified protein [2]) of 95.2 ± 9.9 µM and a Vmax (purified protein [2]) of 366 µmol/min/mg. For the same protein, the kcat (purified protein [2]) was 387 s⁻¹ and the kcat/Km (purified protein [2]) was 4.06e+06 M⁻¹ s⁻¹.

B2: AvDsrL-1A (Allochromatium vinosum DSM 180) (protein)
chain: MATSSDEMKMKPTWRRFEDGEHVWDNLTDKIFNQDRSHKCPTYVHKTPPCQGSCPSGEDIRGWLQIVRGMEKPPQGMDWQEYAFRRSTDANPFPAMMGRVCPAPCQDGCNRNELEDFVGINSVEQFIGDTAIANGYTFEAPELDTGKRIAIVGGGPAGLAAAYQLRRKGHSCTIFEANDGLGGMFRFGIPGYRVPRDKLDAEIQRILDMGRVEVRLKTRIGTDVTVEQLEKDYDAILWAIGCQSGRGLPVPGWEGTPNCVTGVAFLKAFNEGRMKVTAGKVVCVGGGDTSIDVVSVARRLGHVNKSNPNELPETVIRDGYVAHDAASAAAAQGAEVTLTSLFTRDKMTASEHEVDDATREGVTILDGVMPVEVIKDANGRAIGLKVADCTMTDGRPTPVEGTERVLEADLIVSAIGQGGDLSGLEQLDNGRGLMDSDKFYQVPGKAGHFVAGDIIRPHLLTTAIGQAWIAADSIDAYVMQAEHKRRPKVDVHHFNLLDKLTEAHLAPESFVAGQAGDMRGTSDANYAIHNYEDRSGAEVIPHEELFLGHFNYVPRNLRKEEVPSADEVLGHFHERVIGLTEPEAIDEAKRCMSCGLCFECDNCVIFCPQDAVFRVDKGSRTTGRYVDTDYAKCIGCHICADVCPTGYIKMGLGE
notes: full length, C-terminal Strep-tag (… from primer), E. coli BL21(DE3) ΔiscR; primer-coded N-term MATSS, C-term IKMGLGE; FAD and four [4Fe-4S] per monomer; homodimer
With B2 the Km (purified protein [3]) was 86.7 ± 17.0 µM, the Vmax (purified protein [3]) was 11.2 µmol/min/mg and the kcat (purified protein [3]) was 13.5 s⁻¹. For the same protein, the kcat/Km (purified protein [3]) was 156000 M⁻¹ s⁻¹, the Km (purified protein [4]) was 2563.0 ± 272.1 µM and the Vmax (purified protein [4]) was 120 µmol/min/mg. It also gave a kcat (purified protein [4]) of 146 s⁻¹, a kcat/Km (purified protein [4]) of 57000 M⁻¹ s⁻¹ and a Km (purified protein [5]) of 123.9 ± 10.3 µM. For the same protein, the Vmax (purified protein [5]) was 145 µmol/min/mg, the kcat (purified protein [5]) was 176 s⁻¹ and the kcat/Km (purified protein [5]) was 1.42e+06 M⁻¹ s⁻¹. It also gave a Km (purified protein [6]) of 1667.0 ± 230.2 µM, a Vmax (purified protein [6]) of 4 µmol/min/mg and a kcat (purified protein [6]) of 4.9 s⁻¹. It also gave a kcat/Km (purified protein [6]) of 3000 M⁻¹ s⁻¹.

B3: DaDsrL-2 (Desulfurella amilsii) (protein)
chain: MAVVKVKKSIKSFSKPSGTEYSSDRPIYVEKRPPCSDTCPNGEQVREFLQYIAQAQDYGRTYEEALEGAFYIIAQTNSMPATTGRICPHPCESRCNRKDKDSAVNINASEMFIGDFAVQNKLPLKKLDETYDAKVAVIGSGPSGLSCAYHLARRGVKVTIFEKEEKPGGLLYYGIPNFRLPKEIVSAEIQRIVDLGVDIKYGKAVGKDIGIEDLKKEFDCIYVATGAYKPEKPNLENIDNIKGVYSGLEFLYHFAKGERIDIGKDVVVVGADTAADAAMISKRWGANVTFAYRRTVPDKETFDKKASREAIDAYEEGITFQFATVPVELVSENGKLTGVKFQKIKVGAKDERGHAAQVENIGEPFLVKADAFIYSVGQKPDYSGLEKLLGQSEGFVKIKDNYQVEGQDKVFAGGDVVGPRLMYVTTAIGHGFAAAVNMIEYLTGKKVIEKDTRKVIESDKMHLDLYEAKPRHERKLRDPIERIKDFEPFMNGLSMEEFIEEAKRCMSCGLCFDCGNCFTYCSHSGVKKLPKGQHYEFHLETCDGCMKCFENCPCGYIEKM
notes: full length, C-terminal Strep-tag (… from primer), E. coli BL21(DE3) ΔiscR; primer-coded N-term MAVVKVK, C-term PCGYIEKM; contains YRR motif
Work on B3 yielded a Km (purified protein [7]) of 22.0 ± 1.9 µM, a Vmax (purified protein [7]) of 88.8 µmol/min/mg and a kcat (purified protein [7]) of 94.3 s⁻¹. The kcat/Km (purified protein [7]) was 4.2e+06 M⁻¹ s⁻¹, the Km (purified protein [8]) was 124.5 ± 10.5 µM and the Vmax (purified protein [8]) was 103 µmol/min/mg. It also gave a kcat (purified protein [8]) of 110 s⁻¹ and a kcat/Km (purified protein [8]) of 870000 M⁻¹ s⁻¹.
